Measurements published in patent US20200164071A1 (GENSUN BIOPHARMA, published 2020).

Experiments:
[1] = biological target: T1, human PD-1 on CHO-K1 cells (human, UniProt Q15116 25-288); assay: flow cytometry blocking assay: FITC human PD-L1-Fc on human PD-1 CHO-K1 cells (Examples 11 and 16); title: Blocking PD-L1 binding to PD-1
T1 construct: also called Human PD-1 transfected CHO-K1 cells
Method: (§1) Human or Cyno PD-1 transfected CHO-K1 cells were washed with FACS buffer (0.5% BSA 2 mM EDTA in PBS) and re-suspended at a concentration of 10⁶ cells/ml. […] The cells were then washed and re-suspended in 30 μl 7 AAD solution; 35 μl 10% neutral buffered formalin solution was then added and incubated for 15 mins. before analysis using the iQue intellicyt system.

[2] = biological target: T2, His tagged human PD-1 protein (human, UniProt Q15116 25-170, limits assumed); assay: bio-layer interferometry (Octet RED96), antibody on anti-human IgG capture biosensors, His tagged human PD-1 as analyte, 1:1 global fit (Example 12)
T2 construct: also called huPD-1-His; not shown: His tag
Method: […] was carried out using the Octet RED96 system (ForteBio Octet RED96 System) to characterize the binding kinetics of antibodies against His tagged human PD-1 protein. 20 nM of antibody was loaded onto the anti-human IgG capture biosensors. Association of analyte (His tagged human PD-1 protein) was observed by placing the biosensors in wells containing 2 or 3 fold serial dilution of analytes (72 nM being the highest concentration) for 5 mins. Dissociation was measured after transfer of the biosensors into kinetic buffer alone and monitoring of the interferometry signal for 10 minutes. The observed on and off rates (Ka and Kd) were fit using a 1:1 binding global fit model comprising at least 5 concentrations tested, and the equilibrium binding constant KD was then calculated.

[3] = biological target: T1, human PD-1 on CHO-K1 cells; assay: flow cytometry blocking assay: FITC human PD-L1-Fc on human PD-1 CHO-K1 cells (Examples 11 and 15); title: PD-1 Blocking Activity Screening
Method: as §1

[4] = biological target: T1, human PD-1 on CHO-K1 cells; assay: flow cytometry blocking assay: FITC human PD-L1-Fc on human PD-1 CHO-K1 cells (Example 11)
Method: as §1

[5] = biological target: T1, human PD-1 on CHO-K1 cells; assay: flow cytometry blocking assay: FITC human PD-L1-Fc on human PD-1 CHO-K1 cells (Example 11); axis: % of PD-L1 Binding Signal; first of two legend entries printed PD-05 Human
Method: as §1

[6] = biological target: T1, human PD-1 on CHO-K1 cells; assay: flow cytometry blocking assay: FITC human PD-L1-Fc on human PD-1 CHO-K1 cells (Example 11; the legend paragraph 42 calls it binding to hu PD-L1)
Method: as §1

[7] = biological target: T3, cyno PD-1 on CHO-K1 cells (cyno); assay: flow cytometry blocking assay of Example 11, PD-L1 on cyno PD-1 CHO-K1 cells; cyno taken from the legend paragraph 42 ('cyno-hu'), while Example 11 speaks of human PD-1 and human PD-L1 for this figure
T3 construct: whole, on cells; also called cyno hu PD-1; Cyno PD-1 transfected CHO-K1 cells
Method: as §1

[8] = biological target: T4, human TIGIT on CHO-K1 cells (human, UniProt Q495A1 23-244); assay: flow cytometry, CHO-K1 cells expressing full-length human TIGIT, PE F(ab')2 goat anti-human IgG Fc (Example 5)
T4 construct: also called hu TIGIT; TIGIT+CHO-K1 cells
T4 sequence: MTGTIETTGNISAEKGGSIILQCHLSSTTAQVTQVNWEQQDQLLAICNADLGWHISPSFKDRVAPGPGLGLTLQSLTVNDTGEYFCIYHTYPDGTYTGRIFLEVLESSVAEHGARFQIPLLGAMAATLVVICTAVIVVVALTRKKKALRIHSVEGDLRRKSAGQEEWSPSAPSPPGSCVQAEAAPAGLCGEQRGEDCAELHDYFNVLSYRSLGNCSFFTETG
Method: (§2) The mixtures were incubated at 4 C for 20 min and washed 3 times. The mixtures were stained with the secondary antibody, PE labeled F(ab′)2-Goat anti-human IgG Fc (Thermo H10104) at 4° C. for 20 min. Cells were washed and resuspended in 7AAD solution and fixed in 10% neutral buffered formalin solution for 15 minutes before analysis with the iQue Intellicyt system.

[9] = biological target: T5, cyno TIGIT on CHO-K1 cells (cyno, UniProt A0A7N9I9V4 89-312); assay: flow cytometry blocking assay of Example 4: biotinylated hPVR-mIg on cyno TIGIT CHO-K1 cells
T5 construct: whole, on cells; also called cyno-hu TIGIT

[10] = biological target: T6, human TIGIT (antigen of Table 3) (human, UniProt Q495A1 23-141, limits assumed); assay: binding kinetics, method not described (Table 3, Binding Affinity)
T6 construct: neither the method nor the antigen construct is described; limits and tags unknown; also called hu TIGIT
T6 sequence: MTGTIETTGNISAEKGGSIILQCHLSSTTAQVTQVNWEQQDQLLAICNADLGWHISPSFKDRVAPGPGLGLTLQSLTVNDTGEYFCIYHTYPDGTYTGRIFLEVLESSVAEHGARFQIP

[11] = biological target: T4, human TIGIT on CHO-K1 cells; assay: flow cytometry, CHO-K1 cells expressing human TIGIT (binding assay of Example 5)
Method: as §2

[12] = biological target: T4, human TIGIT on CHO-K1 cells; assay: flow cytometry blocking assay of Example 4: biotinylated hPVR-mIg on human TIGIT CHO-K1 cells
[13] = biological target: T4, human TIGIT on CHO-K1 cells; assay: flow cytometry competition with biotinylated hPVR-mIg on CHO-K1 cells expressing human TIGIT
Method: (§3) The cells were washed 2 times before staining with PE streptavidin (BioLegend) for 20 min at 4 C. The cells were then washed, resuspended in 30 μl 7 AAD solution, and 35 μl of 10% neutral buffered formalin solution was added. The cells were then incubated for 15 min. Flow cytometry was performed and IC50 was calculated using iQue intellicyt system.

[14] = biological target: T5, cyno TIGIT on CHO-K1 cells; assay: flow cytometry, CHO-K1 cells expressing cyno TIGIT (binding assay of Example 5)
Method: as §2

[15] = biological target: T4, human TIGIT on CHO-K1 cells; assay: flow cytometry blocking assay: biotinylated hPVR-mIg on human TIGIT CHO-K1 cells, PE streptavidin (Examples 4 and 6)
Method: as §3

[16] = biological target: T4, human TIGIT on CHO-K1 cells; assay: flow cytometry competition assay: PVR (CD155) signal on human TIGIT CHO-K1 cells against titrated antibody (Example 3 names human PVR-human Fc, m15, with PE anti-human Fc)
Excerpt: Cells were then washed with FACS buffer and then re-suspended in 7-amino-actinomycin D (7AAD) solution before analysis with iQue intellicyt system.

T2 sequence (Q15116 25-170 limits assumed): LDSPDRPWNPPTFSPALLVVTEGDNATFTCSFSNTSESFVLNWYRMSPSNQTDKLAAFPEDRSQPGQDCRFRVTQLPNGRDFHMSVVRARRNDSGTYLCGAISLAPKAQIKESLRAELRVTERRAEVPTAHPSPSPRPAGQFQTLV
T1 sequence (Q15116 25-288): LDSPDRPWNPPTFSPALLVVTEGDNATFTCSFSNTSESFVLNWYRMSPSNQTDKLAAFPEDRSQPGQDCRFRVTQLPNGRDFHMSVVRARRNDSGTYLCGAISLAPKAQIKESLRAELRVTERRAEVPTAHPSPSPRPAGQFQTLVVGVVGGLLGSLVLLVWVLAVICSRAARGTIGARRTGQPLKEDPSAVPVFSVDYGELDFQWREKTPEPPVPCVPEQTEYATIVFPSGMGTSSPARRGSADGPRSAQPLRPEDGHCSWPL
T5 sequence (A0A7N9I9V4 entry or part of it): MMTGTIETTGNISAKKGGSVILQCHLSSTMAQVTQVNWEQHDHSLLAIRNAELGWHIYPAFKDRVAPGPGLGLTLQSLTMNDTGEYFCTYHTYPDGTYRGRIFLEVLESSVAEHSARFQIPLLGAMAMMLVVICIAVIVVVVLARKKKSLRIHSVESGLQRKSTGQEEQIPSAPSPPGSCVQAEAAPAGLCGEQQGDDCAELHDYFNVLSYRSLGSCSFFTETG

B1: PD-01 mab (antibody, V domains shown)
VH: EVQLVESGGGLVQPGGSLRLSCAASGFTFSNFLMSWVRQAPGKGLEWVSTISGGGRDTYYVDSVKGRFTISRDNSKNTLYLQMNSLRAEDTAVYYCAKRTTYSMDYWGQGTSVTVSS
VL: DIQMTQSPSSVSASVGDRVTITCLASQTIGTWLAWYQQKPGKAPKLLIYAATSLADGVPSRFSGSGSGTDFTLTISSLQPEDFATYYCQQFYSIPWTFGGGTKLEIK
notes: also called anti-PD-1 (PD-01)
B1 showed an IC50 [1] of 1.5 nM, a Kd [2] of 2.2 nM and a koff [2] of 0.000272 s⁻¹. For the same binder, the kon [2] was 126000 M⁻¹ s⁻¹, the “IC50 (read off the curve)” value [3] was ~1 nM and the IC50 [4] was 2.28 nM.

B2: PD-05 (antibody, V domains shown)
VH: QVQLVQSGAEVKKPGASVKVSCKASGYTFTTYYIYWVRQAPGQGLEWMGGINPGNGGTNFNEKFKIRVTMTRDTSISTAYMELSSLRSEDTAVYYCARRYHGYDGGLDYWGQGTLVTVSS
VL: DIVLTQSPASLAVSPGQRATITCRASKSVSTSGFSYIHWYQQKPGQPPKLLIYLASNLESGVPARFSGSGSGTDFTLTINPVEANDTANYYCQHTWELPNTFGGGTKVEIK
notes: also called anti-PD-1 mab PD-05
B2 showed an IC50 [5] of 0.56 nM, an IC50 [6] of 0.56 nM and an IC50 [7] of 1.6 nM.

B3: T-08 (antibody, V domains shown)
VH: QVQLVQSGSELKKPGASVKVSCKASGYTFTNYGMNWVRQAPGQGLEWMGWINTYTGEPTYADDFKGRFVFSLDTSVSTAYLQISSLKAEDTAVYYCARAPPYGYDVRFAYWGQGTLVTVSS
VL: DVVMTQSPLSLPVTLGQPASISCRSSQSIVHSNGNTYLEWFQQRPGQSPRVLIYKVSDRFSGVPDRFSGSGSGTDFTLKISRVEAEDVGVYYCFQGSHVPWTFGRGTKLEIK
notes: Anti-human TIGIT monoclonal antibody from mouse hybridoma; also called anti-hu TIGIT mab T-08; anti-TIGIT (T-08)
For B3, the EC50 [8] was 0.4 nM, the “IC50 (read off the curve)” value [9] was ~1 nM and the Kd [10] was 5.44 nM. The koff [10] was 0.00376 s⁻¹, the kon [10] was 690000 M⁻¹ s⁻¹ and the “EC50 (read off the curve)” value [11] was ~0.5 nM. For the same binder, the “IC50 (read off the curve)” value [12] was ~1 nM, the IC50 [13] was 0.4 to 1.67 nM and the “EC50 (read off the curve)” value [14] was ~1 nM. It also gave an IC50 [15] of 1.2 nM.

B4: T-04 (antibody, V domains shown)
VH: EVQLVQSGAEVKKPGATVKISCKVSGYTFTDHTIHWVQQAPGKGLEWMGYIYPRDGSSKYNVKFKGRVTITADTSTDTAYMELSSLRSEDTAVYYCATGMLRWFAYWGQGTLVTVSS
VL: DIQMTQSPSSLSASVGDRVTITCKASQDVFTAVAWYQQKPGKAPKLLIYSASYRYTGVPSRFSGSGSGTDFTFTISSLQPEDIATYYCQQHYSIPLTFGAGTKLEIK
notes: Anti-human TIGIT monoclonal antibody from mouse hybridoma; also called anti-hu TIGIT mab T-04
For B4, the EC50 [8] was 0.23 nM, the Kd [10] was 0.67 nM and the koff [10] was 0.000538 s⁻¹. For the same binder, the kon [10] was 809000 M⁻¹ s⁻¹, the “IC50 (read off the curve)” value [16] was ~0.3 nM and the IC50 [13] was 0.12 to 0.31 nM. The “IC50 (read off the curve)” value [15] was ~0.4 nM.
